Measured values taken from the RNAGym collection of RNA variant scans (doi:10.7554/elife.80360).

B1: Twister Ribozyme (parent)
chain: AACACUGCCAAUGCCGGUCCCAAGCCCGGAUAAAAGUGGAGGGGGCGG

Variants of: B1
Assay: self-cleavage, relative activity (ratio to wild type); higher = more cleavage; co-transcriptional

Variant	self-cleavage
A10C A34G	0.88
A10U G45C	0.707
C9U C27U	0.37
C9U C27G	0.0911
A10C G39C	0.172
A10C G39A	0.601
A10U C25A	0.0757
A10U C25U	0.731
C9U G42A	0.153
A11G G43C	0.169
A11G G43A	0.234
C9U C46U	0.729
A11C C26A	0.183
A11C C26G	0.08
C9U U12C	0.501
A11C A33C	0.724
A11C A33G	0.893
A10U A23U	0.632
A10G A23U	0.92
A10G A34G	0.888
C9U G47A	0.425
C9U G47U	0.269
A10C U37A	0.881
A10C U37G	0.692

Variant	self-cleavage
A10U A35C	1.16
A10U A35G	0.808
A10C C15G	0.0331
A10C C15U	0.942
A10C C15A	0.493
A10G A30G	0.897
A10U C14A	0.824
A10U C14G	0.244
C9U G38U	0.395
C9U G24U	0.0861
A11G A32C	0.925
A11G A32G	0.882
A10U A11G	1.09
A10U A11C	1.03
A10U A11U	1.14
A11C G17A	0.134
A11C G17U	0.14
A10G G17U	0.388
C9U G13A	1.03
C9U G13C	0.592
A10C A33U	1.08
A10C A33G	1.04
A11C G38A	0.768
A11C G38U	1.03

Variant	self-cleavage
A11C G38C	0.731
A10U G17U	0.302
A11G G36U	0.431
A10C G36U	0.722
A10C G36A	0.794
A10U G42C	0.543
A10U G42A	0.489
A11C U31C	0.876
A11G A30C	0.861
A11C C19G	0.138
A11C C19A	0.136
A10U A22G	0.291
A10U A22U	0.829
A11G G38C	0.683
A11G G38U	0.613
A11G G38A	0.824
A10C C26A	0.664
A10C C26G	0.175
A10C A30U	1.11
A10C G42U	0.26
A10U U37C	0.667
A10U U37A	0.86
A10G U12G	1.07
A10G U12A	1.03

Variant	self-cleavage
A11C C21A	0.0812
A11C C21U	0.1
A11C C21G	0.118
C9U C26A	0.0658
C9U C26U	0.086
C9U C26G	0.0629
A11G C20G	0.197
A11G C20U	0.797
A11G C20A	0.117
A10G G24A	0.178
A10G U31A	0.696
A10G U31G	0.994
A10G U31C	0.817
A10U G28C	0.768
A10U G28A	0.885
A11G G29A	0.772
A11G G29U	0.762
A10U C46A	0.913
A10U C46G	0.857
A11C G16C	0.187
A10C G16U	0.677
A11G C27G	0.0637
A11G U12C	1.13
A10G A11C	0.801

Variant	self-cleavage
A10G A11U	1.09
A11C A34U	0.785
A11C A34C	0.049
A11C A35G	0.574
A11C A35U	0.942
A11C A35C	0.886
A11G G41C	0.313
A11C G36C	0.636
A10C C14A	1.05
A10C A35C	1.08
A10C A35U	1.04
A10C G29U	0.912
A10C G29C	0.845
A10C G29A	0.86
C9U G39A	0.139
A10C A40C	0.253
A11C G28U	0.563
A11C G28A	0.656
C9U G36C	0.12
A11G G13U	0.705
A11G G24U	0.143
A10U C20A	0.168
A10U C20G	0.131
A10U C20U	0.948

Variant	self-cleavage
A11C U12C	0.79
A11C U12A	0.907
A11C U12G	0.971
A10C A11C	0.907
A10C A11G	1.12
A10C A11U	0.883
A11G U18A	0.61
A11G A33G	0.84
A11G A33C	0.836
A10C G17C	0.125
A10C G17A	0.391
A10C G17U	0.408
C9U G43U	0.126
C9U G43A	0.137
A10G U18C	0.807
A11G A34U	0.913
A11G A34C	0.353
A11C G43U	0.252
A11C G43C	0.159
A10C G28U	0.811
A10G G45A	1.13
A10G G45U	0.883
A10C G44C	0.867
A10C G44A	0.932

Variant	self-cleavage
A11C A30U	0.959
C9U G44A	0.72
C9U G44U	0.595
C9U G44C	0.677
A11C A22U	0.58
A10U G43A	0.373
A10U G43C	0.2
A10U G43U	0.501
A11G C14G	0.133
A11G C14A	0.941
A11G C14U	0.943
A11G C15U	0.912
A11G C15G	0.0492
A10U G36C	0.711
A10G C25U	0.874
A10G C25A	0.139
A11G C19A	0.221
A10G C15U	0.902
A10C U12C	0.929
A10C U12A	1.24
A11C U18C	0.154
A11C U18A	0.159
A11C U18G	0.0822
